Test results from patent publication US11760795B2, “Monoclonal antibodies to growth and differentiation factor 15 (GDF-15), and uses thereof for treating cancer cachexia and cancer” (JULIUS-MAXIMILIANS-UNIVERSITÄT WÜRZBURG, priority 2014, dated 2023).

Columns and labels:
[1] = biological target: T1, recombinant human GDF-15 (Homo sapiens, UniProt Q99988); assay: Mass spectrometric epitope excision; type: binding; conditions: trypsin 2 h at 37° C., MS/MS identification
T1 sequence (Q99988 with tags, fused parts or gaps): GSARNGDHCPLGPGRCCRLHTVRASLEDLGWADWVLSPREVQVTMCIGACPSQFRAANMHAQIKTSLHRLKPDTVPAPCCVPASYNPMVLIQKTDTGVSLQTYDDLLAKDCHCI
Experimental: The epitope of recombinant human GDF-15 which binds to the antibody B1-23 was identified by means of the epitope excision method and epitope extraction method (Suckau et al. Proc Nati Acad Sci USA. 1990 December; 87(24): 9848-9852; R. Stefanescu et al., Eur. J. Mass Spectrom. 13, 69-75 (2007)).
For preparation of the antibody column, the antibody B1-23 was added to NHS-activated 6-aminohexanoic acid coupled sepharose. The sepharose-coupled antibody B1-23 was then loaded into a 0.8 ml microcolumn and washed with blocking and washing buffers.
The immobilized antibody B1-23 on the affinity column was then incubated with recombinant GDF-15 for 2 h. The formed immune complex on the affinity column was then incubated with trypsin for 2 h at 37° C. […] The immobilized antibody itself is proteolytically stable. The resulting peptides of the digested GDF-15 protein, which were shielded by the antibody and thus protected from proteolytic cleavage, were eluted under acidic conditions (TFA, pH2), collected and identified by mass spectrometry.

[2] = biological target: T2, human GDF-15 precursor on human cells (Homo sapiens, UniProt Q99988); assay: Staining experiments on human cells; type: cell-based
T2 construct: endogenous in cells
T2 sequence (Q99988 30-308 limits assumed): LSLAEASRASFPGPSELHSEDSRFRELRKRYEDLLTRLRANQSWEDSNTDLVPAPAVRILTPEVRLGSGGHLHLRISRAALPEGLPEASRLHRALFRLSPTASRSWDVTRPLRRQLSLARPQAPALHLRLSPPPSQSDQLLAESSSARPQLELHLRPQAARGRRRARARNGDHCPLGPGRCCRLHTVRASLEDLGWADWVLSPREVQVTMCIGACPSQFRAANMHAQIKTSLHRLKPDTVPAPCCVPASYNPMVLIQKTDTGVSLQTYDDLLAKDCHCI

[3] = test system: GDF-15 mediated downregulation of NKG2D on NK cells; assay: NKG2D surface expression on NK cells after GDF-15 treatment (flow cytometry); type: cell-based; conditions: 72 hours incubation
Experimental: FIG. 1: NKG2D Expression on NK Cells after Treatment with or without GDF-15. The cell surface expression of NKG2D was determined on NK cells after treatment with the indicated cytokines in the presence or absence of the anti-GDF-15 antibody mAb B1-23.
a) The NKG2D (Natural Killer Group 2D) receptor, which is expressed on NK cells and CD8+ T cells, is known to play an important role in the immune surveillance against tumors. Transformed as well as viral infected cells express ligands, which bind to the NKG2D receptor, thereby activating the cytotoxic effector functions of the described immune cells. In that way transformed cells can be detected and eliminated by the immune system.
After 72 hours incubation the immune cells were stained with the following FACS-antibodies: anti CD3, anti CD56, anti-NKG2D. Using this antibody combination, the experiment focused on NK cells and their NKG2D surface expression. The low NKG2D level on immune cells led to an impaired tumor/target cell lysis. The GDF-15 mediated downregulation of NKG2D was prevented by mAb B1-23.

[4] = test system: 13 mer linear peptides derived from GDF-15; assay: Epitope mapping on peptide array of 13 mer linear peptides derived from GDF-15; type: binding, human; conditions: antibody dilution 1:100, overnight at 4° C.
Experimental: Epitope Mapping: Monoclonal mouse antibody GDF-15 against 13 mer linear peptides derived from GDF-15
The protein sequence was translated into 13 mer peptides with a shift of one amino acid. The C- and N-termini were elongated by a neutral GSGS linker to avoid truncated peptides (bold letters).
Primary sample: Monoclonal mouse antibody GDF-15 (1 μg/μl):
Staining in incubation buffer for 16 h at 4° C. at a dilution of 1:100 and slight shaking at 500 rpm
Secondary antibody: Goat anti-mouse IgG (H+L) IRDye680, staining in incubation buffer with a dilution of 1:5000 for 30 min at room temperature (RT)
After pre-swelling for 10 min in standard buffer, the peptide microarray was incubated overnight at 4° C. with monoclonal mouse antibody GDF-15 at a dilution of 1:100. Repeated washing in standard buffer (2×1 min) was followed by incubation for 30 min with the secondary antibody at a dilution of 1:5000 at room temperature. After 2×10 sec. washing in standard buffer and short rinsing with dist. water, the PEPperCHIP® was dried in a stream of air. Read-out was done with Odyssey® Imaging System at a resolution of 21 μm and green/red intensities of 7/7 before and after staining of control peptides by anti-HA and anti-FLAG(M2) antibodies.

[5] = biological target: human Interleukin-5 (Homo sapiens, UniProt P05113); assay: Surface plasmon resonance control flow cell with human Interleukin-5; type: binding; conditions: SPR, same coupling density
human Interleukin-5, sequence (P05113 20-134): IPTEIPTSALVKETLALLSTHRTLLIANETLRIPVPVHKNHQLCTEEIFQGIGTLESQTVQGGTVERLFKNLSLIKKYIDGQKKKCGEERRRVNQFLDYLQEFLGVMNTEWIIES

B1: mAb-B1-23: murine IgG2a (kappa) monoclonal anti-human GDF-15 antibody produced by hybridoma cell line B1-23, DSM ACC3142 (antibody, V domains shown)
VH: QVKLQQSGPGILQSSQTLSLTCSFSGFSLSTSGMGVSWIRQPSGKGLEWLAHIYWDDDKRYNPTLKSRLTISKDPSRNQVFLKITSVDTADTATYYCARSSYGAMDYWGQGTSVTVSS
VL: DIVLTQSPKFMSTSVGDRVSVTCKASQNVGTNVAWFLQKPGQSPKALIYSASYRYSGVPDRFTGSGSGTDFTLTISNVQSEDLAEYFCQQYNNFPYTFGGGTKLEIKRTVA
[1]
  positions of GDF-15 peptides forming the immune complex (epitope): 40-55 ([…]) and 94-114 ([…])
[2]
  binding to the human GDF-15 precursor on human cells: capable of binding
[3]
  GDF-15 mediated downregulation of NKG2D: prevented
[4]
  interaction with linear 13 mer peptides derived from GDF-15: none of the linear 13 mer peptides derived from GDF-15 interacted
[5]
  binding to human interleukin-5: no binding
